Assay results published in the supplement of paper PMC9112550, “Optimization of the antimicrobial peptide Bac7 by deep mutational scanning” (BMC Biology, 2022).

System: Escherichia coli TOP10
Assay: shrunken log2 fold change of peptide-encoding DNA abundance (4.5 h post-induction vs induction); higher = less antimicrobial activity (less host growth inhibition)
Details: time post-induction: 4.5 h; library: site-saturation at positions 5, 18, 19, 20
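Note: peptides expressed intracellularly from a pBAD plasmid library in pooled LB shake-flask culture, induced with 0.3% L-arabinose, DNA abundance read by NGS, three biological replicates, DESeq2 with apeglm shrinkage.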

Row | Sequence | shrunken log2 fold change
1 | RRIRWRPPRLPRPRPRPGGDPRP | 0.556
2 | RRIRWRPPRLPRPRPRPGGGPRP | 0.953
3 | RRIRWRPPRLPRPRPRPGIGPRP | 0.433
4 | RRIRWRPPRLPRPRPRPGIHPRP | 0.11
5 | RRIRWRPPRLPRPRPRPGIPPRP | 0.11
6 | RRIRWRPPRLPRPRPRPGIRPRP | 0.29
7 | RRIRWRPPRLPRPRPRPGLSPRP | -0.0318
8 | RRIRWRPPRLPRPRPRPGMHPRP | 0.343
9 | RRIRWRPPRLPRPRPRPGMRPRP | 0.976
10 | RRIRWRPPRLPRPRPRPGMYPRP | 0.0165
11 | RRIRWRPPRLPRPRPRPGNPPRP | -0.139
12 | RRIRWRPPRLPRPRPRPGNWPRP | 0.0533
13 | RRIRWRPPRLPRPRPRPGRHPRP | 0.458
14 | RRIRWRPPRLPRPRPRPGSCPRP | 0.389
15 | RRIRWRPPRLPRPRPRPGSGPRP | 0.497
16 | RRIRWRPPRLPRPRPRPGSMPRP | -0.0806
17 | RRIRWRPPRLPRPRPRPGTKPRP | 0.139
18 | RRIRWRPPRLPRPRPRPGVLPRP | 0.0321
19 | RRIRWRPPRLPRPRPRPGVMPRP | 0.477
20 | RRIRWRPPRLPRPRPRPGWTPRP | 0.253
21 | RRIRWRPPRLPRPRPRPGYCPRP | -0.407
22 | RRIRWRPPRLPRPRPRPGYQPRP | -0.00973
23 | RRIRWRPPRLPRPRPRPHASPRP | 0.134
24 | RRIRWRPPRLPRPRPRPHAVPRP | 0.172
25 | RRIRWRPPRLPRPRPRPHCFPRP | -0.0202

Row | Sequence | shrunken log2 fold change
26 | RRIRWRPPRLPRPRPRPHCGPRP | -0.0645
27 | RRIRWRPPRLPRPRPRPHDKPRP | 0.0422
28 | RRIRWRPPRLPRPRPRPHDQPRP | 0.36
29 | RRIRWRPPRLPRPRPRPHFSPRP | -0.205
30 | RRIRWRPPRLPRPRPRPHHNPRP | -0.478
31 | RRIRWRPPRLPRPRPRPHHQPRP | -0.316
32 | RRIRWRPPRLPRPRPRPHHRPRP | -0.214
33 | RRIRWRPPRLPRPRPRPHIMPRP | -0.457
34 | RRIRWRPPRLPRPRPRPHIWPRP | -0.131
35 | RRIRWRPPRLPRPRPRPHKFPRP | -0.307
36 | RRIRWRPPRLPRPRPRPHKLPRP | -0.135
37 | RRIRWRPPRLPRPRPRPHKSPRP | 0.0767
38 | RRIRWRPPRLPRPRPRPHMGPRP | 0.0771
39 | RRIRWRPPRLPRPRPRPHMSPRP | 0.033
40 | RRIRWRPPRLPRPRPRPHNGPRP | -0.349
41 | RRIRWRPPRLPRPRPRPHPQPRP | 0.309
42 | RRIRWRPPRLPRPRPRPHPYPRP | -0.195
43 | RRIRWRPPRLPRPRPRPHQRPRP | -0.0218
44 | RRIRWRPPRLPRPRPRPHRHPRP | -0.131
45 | RRIRWRPPRLPRPRPRPHRVPRP | -0.0781
46 | RRIRWRPPRLPRPRPRPHTWPRP | -0.134
47 | RRIRWRPPRLPRPRPRPHVPPRP | -0.161
48 | RRIRWRPPRLPRPRPRPHWKPRP | -0.018
49 | RRIRWRPPRLPRPRPRPHYDPRP | -0.0735
50 | RRIRWRPPRLPRPRPRPHYIPRP | -0.468

Row | Sequence | shrunken log2 fold change
51 | RRIRWRPPRLPRPRPRPHYLPRP | -0.106
52 | RRIRWRPPRLPRPRPRPHYVPRP | -0.113
53 | RRIRWRPPRLPRPRPRPHYWPRP | -0.0704
54 | RRIRWRPPRLPRPRPRPIACPRP | 0.0997
55 | RRIRWRPPRLPRPRPRPIADPRP | 0.0247
56 | RRIRWRPPRLPRPRPRPIAEPRP | 0.00894
57 | RRIRWRPPRLPRPRPRPIAGPRP | 0.0596
58 | RRIRWRPPRLPRPRPRPIAWPRP | 0.713
59 | RRIRWRPPRLPRPRPRPIDTPRP | 0.00736
60 | RRIRWRPPRLPRPRPRPIEMPRP | 0.467
61 | RRIRWRPPRLPRPRPRPIEVPRP | 0.0279
62 | RRIRWRPPRLPRPRPRPIFDPRP | 0.273
63 | RRIRWRPPRLPRPRPRPIFSPRP | 0.0085
64 | RRIRWRPPRLPRPRPRPIFWPRP | -0.00424
65 | RRIRWRPPRLPRPRPRPIFYPRP | -0.0652
66 | RRIRWRPPRLPRPRPRPIHGPRP | 0.0966
67 | RRIRWRPPRLPRPRPRPIHRPRP | -0.0434
68 | RRIRWRPPRLPRPRPRPIHSPRP | -0.0401
69 | RRIRWRPPRLPRPRPRPIIWPRP | -0.269
70 | RRIRWRPPRLPRPRPRPIKHPRP | -0.2
71 | RRIRWRPPRLPRPRPRPILNPRP | -0.362
72 | RRIRWRPPRLPRPRPRPINFPRP | -0.143
73 | RRIRWRPPRLPRPRPRPIPEPRP | -0.0356
74 | RRIRWRPPRLPRPRPRPIPPPRP | 0.101
75 | RRIRWRPPRLPRPRPRPIPTPRP | -0.0487

Row | Sequence | shrunken log2 fold change
76 | RRIRWRPPRLPRPRPRPIRYPRP | -0.242
77 | RRIRWRPPRLPRPRPRPITCPRP | -0.0627
78 | RRIRWRPPRLPRPRPRPIVKPRP | -0.174
79 | RRIRWRPPRLPRPRPRPIWFPRP | 1.96
80 | RRIRWRPPRLPRPRPRPIYPPRP | -0.0275
81 | RRIRWRPPRLPRPRPRPIYTPRP | -0.412
82 | RRIRWRPPRLPRPRPRPKAAPRP | 0.338
83 | RRIRWRPPRLPRPRPRPKANPRP | 0.51
84 | RRIRWRPPRLPRPRPRPKCYPRP | -0.0376
85 | RRIRWRPPRLPRPRPRPKFQPRP | -0.00693
86 | RRIRWRPPRLPRPRPRPKGPPRP | 3.65
87 | RRIRWRPPRLPRPRPRPKHVPRP | 0.254
88 | RRIRWRPPRLPRPRPRPKHWPRP | 0.4
89 | RRIRWRPPRLPRPRPRPKKYPRP | -0.245
90 | RRIRWRPPRLPRPRPRPKNIPRP | -0.159
91 | RRIRWRPPRLPRPRPRPKPIPRP | 0.477
92 | RRIRWRPPRLPRPRPRPKPTPRP | 0.0876
93 | RRIRWRPPRLPRPRPRPKQAPRP | 0.413
94 | RRIRWRPPRLPRPRPRPKQDPRP | 0.00878
95 | RRIRWRPPRLPRPRPRPKSLPRP | -0.0933
96 | RRIRWRPPRLPRPRPRPKTQPRP | 0.0326
97 | RRIRWRPPRLPRPRPRPKTSPRP | 0.104
98 | RRIRWRPPRLPRPRPRPKTWPRP | 0.325
99 | RRIRWRPPRLPRPRPRPKVTPRP | -0.165
100 | RRIRWRPPRLPRPRPRPKYIPRP | -0.0755

Row | Sequence | shrunken log2 fold change
101 | RRIRWRPPRLPRPRPRPKYVPRP | -0.0314
102 | RRIRWRPPRLPRPRPRPLCIPRP | -0.275
103 | RRIRWRPPRLPRPRPRPLCYPRP | 0.0105
104 | RRIRWRPPRLPRPRPRPLEHPRP | 0.165
105 | RRIRWRPPRLPRPRPRPLEIPRP | 0.299
106 | RRIRWRPPRLPRPRPRPLFKPRP | -0.242
107 | RRIRWRPPRLPRPRPRPLFVPRP | -0.076
108 | RRIRWRPPRLPRPRPRPLGEPRP | 0.224
109 | RRIRWRPPRLPRPRPRPLGNPRP | -0.14
110 | RRIRWRPPRLPRPRPRPLGPPRP | 0.478
111 | RRIRWRPPRLPRPRPRPLHKPRP | 0.0164
112 | RRIRWRPPRLPRPRPRPLKLPRP | -0.225
113 | RRIRWRPPRLPRPRPRPLKPPRP | 0.0915
114 | RRIRWRPPRLPRPRPRPLMMPRP | 0.0198
115 | RRIRWRPPRLPRPRPRPLNEPRP | -0.0646
116 | RRIRWRPPRLPRPRPRPLPNPRP | 0.783
117 | RRIRWRPPRLPRPRPRPLPWPRP | 0.244
118 | RRIRWRPPRLPRPRPRPLPYPRP | -0.192
119 | RRIRWRPPRLPRPRPRPLSTPRP | 0.383
120 | RRIRWRPPRLPRPRPRPLSYPRP | -0.243
121 | RRIRWRPPRLPRPRPRPLTKPRP | 0.23
122 | RRIRWRPPRLPRPRPRPLVNPRP | -0.0798
123 | RRIRWRPPRLPRPRPRPLVPPRP | -0.000952
124 | RRIRWRPPRLPRPRPRPLWMPRP | 0.151
125 | RRIRWRPPRLPRPRPRPLWSPRP | -0.13

Row | Sequence | shrunken log2 fold change
126 | RRIRWRPPRLPRPRPRPLYKPRP | -0.849
127 | RRIRWRPPRLPRPRPRPMAMPRP | 0.00646
128 | RRIRWRPPRLPRPRPRPMANPRP | 0.21
129 | RRIRWRPPRLPRPRPRPMEIPRP | -0.0287
130 | RRIRWRPPRLPRPRPRPMFAPRP | 0.216
131 | RRIRWRPPRLPRPRPRPMFSPRP | -0.0364
132 | RRIRWRPPRLPRPRPRPMGGPRP | 0.116
133 | RRIRWRPPRLPRPRPRPMHDPRP | 0.229
134 | RRIRWRPPRLPRPRPRPMHFPRP | -0.00884
135 | RRIRWRPPRLPRPRPRPMHLPRP | -0.317
136 | RRIRWRPPRLPRPRPRPMHPPRP | 0.224
137 | RRIRWRPPRLPRPRPRPMHYPRP | -0.107
138 | RRIRWRPPRLPRPRPRPMKFPRP | -0.278
139 | RRIRWRPPRLPRPRPRPMKVPRP | 0.138
140 | RRIRWRPPRLPRPRPRPMLIPRP | 0.157
141 | RRIRWRPPRLPRPRPRPMLWPRP | 0.0929
142 | RRIRWRPPRLPRPRPRPMMNPRP | -0.238
143 | RRIRWRPPRLPRPRPRPMPQPRP | 0.178
144 | RRIRWRPPRLPRPRPRPMPYPRP | -0.0164
145 | RRIRWRPPRLPRPRPRPMRLPRP | 0.905
146 | RRIRWRPPRLPRPRPRPMRVPRP | 1.03
147 | RRIRWRPPRLPRPRPRPMRYPRP | -0.0679
148 | RRIRWRPPRLPRPRPRPMSQPRP | 0.0791
149 | RRIRWRPPRLPRPRPRPMTEPRP | 0.804
150 | RRIRWRPPRLPRPRPRPMTLPRP | -0.0611
